Measurements published in patent publication US20240287489A1, “CHITINOLYTIC ENZYME-BASED PLANT PROTECTION AGENTS” (GLOBACHEM NV, priority 2021, published 2024).
Entries after “also recorded” stand apart in the source; their conditions may differ.

Assays:
[1] = Reducing end assay, specific chitinase activity of expression and purification fractions; format: biochemical; details: chitin powder, 16 h at 30° C.
Description: Integrity and correctness of the constructs was confirmed by colony PCR and Sanger-sequencing. All constructs were transformed into E. coli BL21 and expressed recombinantly. Expression levels of the target enzymes were determined densitometrically after immunoblot detection for cytosolic and secreted expression. Enzymatic activity was determined for all samples using a reducing end assay. […] Furthermore, it was confirmed that these enzymes are efficiently released into the culture supernatant, rendering cell lysis unnecessary for future production cycles.
A two-step purification of the selected recombinant enzymes with PelB signal peptide form the culture supernatant was carried out with an initial ammonium sulfate precipitation step and a sequential IMAC purification of the solubilized protein precipitate. Elution fractions were pooled and an SDS-PAGE and immunoblot was prepared loading the same volume for each sample (FIG. 4). Expression levels of the five chitinases varied largely, and C1 was detected in much greater abundance relative to the others. […] The observed molecular weight of all enzymes in SDS-PAGE gel and immunoblot was not in accordance with the expected theoretical molecular weight taking into account that a 6×His tag was added C-terminally to the enzymes and in general, bands for all enzymes were detected at a higher molecular weight. For all samples, unspecific bands could detected at ˜25 kDa and ˜50 kDa after IMAC purification, most likely representing host cell protein-contaminations. The amount of protein in the culture media, ammonium sulfate concentrates and the final dialyzed elution fractions was determined using the BCA assay and the same fractions were incubated with chitin powder for 16 h at 30° C. followed by the quantification of reducing sugars to measure specific chitinase activity (Table 4.2). Thereby it was confirmed that all target enzymes were successfully enriched during purification according to the specific activity.
(§1) For the determination of enzymatic activity of recombinant chitinases, a reducing end assay was carried out [Svein et al., Carbohydr Polym, 2004. 56(1): p. 35-39.]. Fractions containing chitinases were incubated with 5% (w/v) chitin powder extracted from shrimp shells (˜400.000 g/mol; Carl Roth) in MAT buffer for 2 h in an overhead shaker at ambient temperature (standard conditions). Samples were centrifuged at 13000×g for 2 min and 40 μl of the supernatant was mixed with 40 μl 0.5 M NaOH and 40 μL of a reagent containing 1.5 mg/ml 3-Methyl-2-benzothiazolinonhydrazon and 0.75 mg/ml Dithiothreitol. Samples were incubated at 80° C. for 15 min and then thoroughly mixed with 80 μl of 0.5% (w/v) FeNH4(SO4)2)×12H2O, 0.5% (w/v) sulfamic acid and 0.25 M HCl. After cooling down to room temperature, 100 μl of the samples were measured at 620 nm. A calibration curve of N-acetyl-glucosamine was constructed freshly for each measuring cycle. One unit [U] was defined as the amount of enzyme required to release 1 μmol of reducing sugars per hour.

[2] = Temperature, pH and NaCl optima and temperature stability of recombinant chitinases (reducing end assay); format: biochemical
Description: All enzymes were first characterized regarding their temperature and pH-optima as well as the optimum NaCl content as the enzymes were isolated from a sea-water microorganism. As the future intention is to integrate these novel enzymes in a degradation processes of natural chitin, all parameters were determined using chitin powder as a substrate instead of pre-treated analogs such as colloidal chitin, glycol chitin or artificial fluorogenic substrates. […] (FIG. 5A). Next, enzyme temperature stability was investigated (FIG. 51). […] Enzyme C1 retained a 50% residual activity after 240 min incubation at 60° C., while the activity of the other chitinases dropped below 50% after 15 min and remained on that level.
Given the marine origin of the P. orarium strain, the effect of salt was also evaluated, testing the addition of NaCl to the standard buffer. […] Increasing NaCl amounts up to 20% (w/v) reduced enzyme activity substantially to 10% for C2, 4 and 5, with C1 and C3 showing highest tolerance (65% activity).
as §1
Enzyme samples were incubated at different temperature (10-60° C., 10° C. increment) and pH (4-11, increment 1) using different buffer systems (Acetate, Tris-HCl, MES, total molar concentration 100 mM), as well as NaCl content (0, 1. 2.5, 5, 10 and 20% w/v) to determine optimum reaction conditions. All experiments were carried out at 1.0 ml scale using 2 μM of the respective enzymes and a 5% (wv) suspension of chitin powder extracted from shrimp shells (˜400.000 g/mol; Carl, Roth) in 100 mM MAT buffer. For the determination of the substrate specificity, chitin powder (5% w/v), glycol chitin (10% v/v), colloidal chitin (5% w/v), chitosan [DA 15-25%, medium molecular weight, Sigma-Aldrich] (5% w/v) and microcrystalline cellulose powder (Sigma Aldrich) (5% w/v) were investigated, respectively. The effect of several potential co-factors on activity was elucidated at a concentration of 1 mM. Additionally, the effect of detergents [SDS 0.5% (w/v), Tween-20 and Triton X-100 both at 0.5% (v/v)] and chemicals (Imidazole 100 mM, EDTA 1 mM) on enzymatic activity was assessed. Samples were incubated in a thermomixer for 16 h at 900 rpm. After incubation, samples were analyzed using the enzyme assay. Thermostability was assessed after incubation of recombinant chitinases at 60° C. for different durations followed by the quantification of residual enzyme activity under standard assay conditions.

[3] = TLC analysis of cleavage patterns with chitin standard molecules; format: biochemical
Description: monomeric oligomers. Chitosan was degraded to a crude mixture of multiple oligomers ranging from dimers to pentamers and even larger undefined yet water-soluble fragments that migrated slightly from the starting point. Further analysis of the cleavage patterns was carried out using chitin standard molecules of DP2-DP6 and incubating them at 4 mg/ml concentration with the individual enzymes (FIG. 9).
Dimeric chitin molecules were not converted by any of the enzymes. […] All chitinases degraded chitin tetramers to dimers as a single product. […] Chitin hexamers were degraded to dimers and trimers. Although all chitinases are different in their structure and present different glycosyl hydrolase domains hydrolysis products in general were similar.
C2, 4 and 5 yielded similar product patterns when incubated with insoluble substrates. […] The presented data underline that the novel chitinases are all suited for the degradation of powdery chitin without any further harsh chemical pre-treatment.
Hydrolysis products were analyzed using 10×10 cm TLC Silica gel 60 F254 plates (Merck, Darmstadt, Germany) and a mixture of butanol:methanol:25% ammonia:H2O (5:4:2:1) as mobile phase. A total sample volume of 0.5 μl was applied in 0.25 μl spots. Chitin standard sugars (Megazyme, Chicago, USA) (5 mg/ml) were applied to the plate (0.5 μL in 0.25 μL spots) as size standard for the determination of the DP. After separation, the plate was air-dried and the developing solution (200 ml Acetone, 30 ml phosphoric acid (85%), 4 ml aniline, 4 g diphenylamine) was sprayed on the plate followed by spot visualization at 300° C. using a heat gun.

Septoria tritici = test: Minimum inhibitory concentration (MIC) test on fungal pathogens; format: cell-based; design: key: xx = no growth/strong inhibition; x = small inhibition; details: start concentration 100 μg/ml
Gibberella zeae = format: cell-based; design: key: xx = no growth/strong inhibition; x = small inhibition; details: start concentration 100 μg/ml

B1: Chitinase 5: chitinolytic enzyme from P. orarium, SEQ ID NO: 5, recombinant with PelB signal peptide and 6×His tag (protein, listed as Photobacterium orarium)
chain: MAMGWSQININGVQKWEEAYSLNVDAANEIITIGAADTAGALYASQSLLQLVDGNKVPEVQITDAPRFAYRGFSVDAVRNFRTKDAIIQLLDQMAAFKLNKLHLRLADDEGWRIEIAGLPELTDVGATRCHDPEEKACILPFLGAGPDGSPESNGYYTATDYQDILSHAAALNIEVVPEIDIPGHAHAAIKAMEARYDHYAAQGNMAEANKYLLTDFNDTTQYLSVQMFTDNAINVCMESSYNFVDAVVSGLVSLHQGVQPLKTFHFGGDEIAGAWINSPACQDFIANNTDGVHSVSDLSRYFVERISVITANYGLDMAGWEDGLMHDGQVYPRSQMANNQLWGNAWQNIWEWGVADRAYNLANNDYKVVYNHATHLYFDHPYEPDPNERGYYWAPRFTDTRKTFGFMPDDVFANADFTRAGAPITKAEVVASAGVKKLLKPENVLGLQGSLWAEAVRTEDQFEGMIFPRVLGLAERAWHTATWEANDNAGIALDETGRNADYNHFANLLGQKVLPKLEQAGIAFNLPVPGGVIENGVLQANSTFPGLTIEYSTDQGTSWQSYDHLNPPAVAAGVQLRTVSGQRTSRVTTVNIE
modifications: PelB signal peptide; 6xHis tag; Chitinase 5
Specific activity ([1]; Culture supernatant fraction): 0.03 U/mg
Specific activity ([1]; Dialysed elution fraction after IMAC): 6.67 U/mg
enzyme activity (relative) ([2]; 20% (w/v) NaCl, pH 8, 30° C.): 10%
Optimum pH ([2]; chitin powder, 30° C., pH 4-11, listed as C5): 9
Optimum salinity ([2]; chitin powder, pH 8, 30° C., 0-20% w/v NaCl): 0 % NaCl
hydrolysis products from chitin pentamers ([3]; 4 mg/ml, 16 h, TLC): trimers and dimers
hydrolysis products from chitin trimers ([3]; 4 mg/ml, 16 h, TLC): no activity
cleavage mechanism (exo-/endo-chitinase activity) ([3]; TLC of products from oligomeric or polymeric chitin substrates, listed as C5): no exochitinase activity; also recorded: endo-chitinase activity
growth inhibition of Septoria tritici in the MIC test (Septoria tritici): xx
growth inhibition of Gibberella zeae in the MIC test (Gibberella zeae): xx
